# Laboratory results published in the RNAGym collection of RNA variant scans (doi:10.7554/elife.80360).
# B1: CPEB3 Ribozyme (parent)
# chain: GGGGGCCACAGCAGAAGCGUUCACGUCGCGGCCCCUGUCAGAUUCUGGUGAAUCUGCGAAUUCUGCUGU
# Variants of: B1
# Assay: self-cleavage, relative activity (ratio to wild type); higher = more cleavage; co-transcriptional
row,Variant,self-cleavage
1,C35A C57G,0.192
2,C35A C57A,0.218
3,C34A G37C,0.262
4,C34A U61G,0.426
5,C35A U38G,0.291
6,C34U G58U,1
7,C34U G58C,0.995
8,C34U G58A,0.92
9,C35U U44G,0.835
10,C35U C39U,0.85
11,C34G A59C,0.291
12,C33U U38A,0.913
13,C35G U36A,0.21
14,C35G U36G,0.189
15,C35G U36C,0.36
16,C33A G37C,0.265
17,C34G U44A,0.579
18,C34A A60C,0.313
19,C34A A60G,0.44
20,C34A A60U,0.292
21,C34U C45A,0.946
22,C35U A40C,0.46
23,C35U A40U,0.717
24,C35A G58A,0.196

row,Variant,self-cleavage
1,C35A G58C,0.25
2,C35U G68A,0.992
3,C33A U43A,0.311
4,C33U G65C,0.669
5,C33U G65A,0.919
6,C34A U64G,0.629
7,C34A G58U,0.881
8,C34A G58C,0.556
9,C33G A40G,0.648
10,C33G G56U,0.458
11,C33G G56A,0.496
12,C35G U38C,0.286
13,C34G G50A,0.707
14,C33G G58A,0.545
15,C33G C35U,0.184
16,C33A G50U,0.893
17,C33U C54G,0.828
18,C33U C54A,0.868
19,C33U U36A,0.218
20,C33U C66U,0.98
21,C33U C66A,0.884
22,C33U U55C,0.685
23,C33U U55G,0.8
24,C35U A60C,0.368

row,Variant,self-cleavage
1,C35U A60U,0.395
2,C35U A60G,0.522
3,C35U U61C,0.625
4,C35U U69A,0.967
5,C33G C63A,0.323
6,C33A U69A,1
7,C33A C39G,0.436
8,C33A C39A,0.286
9,C33A C39U,0.367
10,C34G C63A,0.424
11,C34G C63U,0.666
12,C33G G41C,0.27
13,C33G G41A,0.323
14,C35U U49A,0.969
15,U36A A42G,0.355
16,C35U U55A,0.82
17,C35G G48C,0.531
18,C34A A52U,0.664
19,C34A G56A,0.562
20,C35G G50C,0.401
21,C35G G68U,0.687
22,C33G A59G,0.516
23,C33G A59U,0.362
24,C34A A42G,0.765

row,Variant,self-cleavage
1,C34A A42U,0.491
2,C34G U69G,0.926
3,C33A C57U,0.343
4,C35A G41C,0.237
5,C34G A60U,0.39
6,C34G A60G,0.407
7,C34G A60C,0.331
8,C35G G65C,0.374
9,C35G G65A,0.357
10,C33A G41C,0.343
11,C34A U38A,0.846
12,C34A U38G,0.232
13,C34A U38C,0.492
14,C35A G50C,0.252
15,C35A G50A,0.216
16,C34G G68A,0.931
17,C34U U62C,0.896
18,C33A G47U,0.961
19,C34G G58A,0.463
20,C34G G58U,0.772
21,C34G G58C,0.654
22,C33A U38C,0.72
23,C33A U38A,0.804
24,C35U G41A,0.635

row,Variant,self-cleavage
1,C35G G47A,0.477
2,C34A A59C,0.302
3,C34U G48C,0.974
4,C34U G48A,0.986
5,C35G C39U,0.263
6,C35G C39G,0.343
7,C33G U43A,0.299
8,C33G U43C,0.391
9,C33U A52G,0.993
10,C33U A52U,0.922
11,C34U A52G,1.01
12,C33G U67G,0.93
13,C33G U67A,0.857
14,C33G U55C,0.282
15,C33A U61G,0.5
16,C33G U49G,0.692
17,C34G U61A,0.458
18,C34G U61G,0.311
19,C35U U53C,0.897
20,C35U U53G,0.636
21,C34U G37A,0.224
22,U36A A40U,0.191
23,C35G C57U,0.287
24,C34A U67C,0.938

row,Variant,self-cleavage
1,C34A U67G,0.903
2,C34A U67A,0.883
3,C33A C63A,0.611
4,C33A C63U,0.851
5,C35A G65C,0.191
6,C35A U44G,0.282
7,C35A U44A,0.285
8,C34U U55C,0.823
9,C35A U36A,0.198
10,C34A C35A,0.275
11,C34U C63U,1
12,C34U C63A,0.869
13,U36A A52C,0.24
14,C33G U44A,0.29
15,C35G A52G,0.458
16,C34A C54G,0.38
17,C34A C54A,0.408
18,C33G G37C,0.16
19,C34G U46C,0.625
20,C35A U61C,0.27
21,C33G U62C,0.358
22,C33U C39U,0.932
23,C33U C39G,0.918
24,C34G U36A,0.192

row,Variant,self-cleavage
1,C35G U46A,0.618
2,C35G U46G,0.335
3,C33U G68U,1.02
4,C33U G68A,1.01
5,C34G U38G,0.202
6,C34G U38C,0.441
7,C33U G58C,1.01
8,C33U G58A,1
9,C33U G58U,0.974
10,C33U U43C,0.939
11,C33G A52U,0.444
12,U36A,0.25
13,C34G U67A,0.847
14,C34U U38G,0.227
15,C34U U38C,0.962
16,C34U U38A,0.935
17,C34G G65A,0.58
18,C33G,0.668
19,C33U,0.994
20,C35U G37U,0.258
21,C35U G37C,0.22
22,C33U C34G,0.258
23,C33U G50U,1
